6 molecules from patent publication US20070037210A1 (VALO HSJ LIMITED PARTNERSHIP, published 2007) can be followed below.

Non-standard residues stand in square brackets, D forms with d. No end group written: not given here.

The chains are these.
T1: Interleukin-1 receptor accessory protein (IL-1RacP), on A549 carcinoma cells (human, UniProt Q9NPH3 21-570)
T1 sequence (looked up): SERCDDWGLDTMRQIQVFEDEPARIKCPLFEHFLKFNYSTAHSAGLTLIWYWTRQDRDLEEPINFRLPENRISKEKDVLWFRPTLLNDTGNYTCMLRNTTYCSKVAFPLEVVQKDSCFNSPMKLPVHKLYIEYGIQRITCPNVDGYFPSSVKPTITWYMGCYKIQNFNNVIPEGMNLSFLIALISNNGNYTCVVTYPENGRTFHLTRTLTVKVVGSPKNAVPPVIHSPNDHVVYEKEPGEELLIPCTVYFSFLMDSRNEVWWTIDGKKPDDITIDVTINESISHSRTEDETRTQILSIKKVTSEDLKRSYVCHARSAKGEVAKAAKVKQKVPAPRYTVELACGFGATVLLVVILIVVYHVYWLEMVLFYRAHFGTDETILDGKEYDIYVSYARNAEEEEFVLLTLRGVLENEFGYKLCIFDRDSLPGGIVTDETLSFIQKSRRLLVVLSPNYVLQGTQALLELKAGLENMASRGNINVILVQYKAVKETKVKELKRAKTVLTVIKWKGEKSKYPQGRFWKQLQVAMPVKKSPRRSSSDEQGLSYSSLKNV

B1: API-103 (peptide)
peptide: MKLPVHKLY
B2: API-106 (peptide)
peptide: VGSPKNAVPPV
B3: API-101 (peptide)
peptide: APRYTVELA
B4: APG-201 (peptide)
peptide: [dS][dL][dF][dV][dP][dR][dP][dE][dR][dK]
B5: APG-202 (peptide)
peptide: [dE][dS][dD][dV][dL][dH][dF][dT][dS][dT]
B6: APG-204 (peptide)
peptide: [dL][dR][dK][dY][dA][dD]G[dT][dL]

For the first test, the target named is T1, Interleukin-1 receptor accessory …. As to the kind of experiment: cell-based or functional assay.
With B1, the “IL-1 induced proliferation in A549 carcinoma cells, 3H-thymidine incorporation” value was found to be 1000 nM. Still for that read-out and setting: the figure for B2 is 10000 nM; for B3 it is 1000 nM.

For a further test, the target named is Insulin-like growth factor-1 receptor (IGF-1R) (human, UniProt P08069 31-1367). As to the kind of experiment: cell-based or functional assay.
Chain of Insulin-like growth factor-1 receptor (IGF-1R) (P08069 31-1367): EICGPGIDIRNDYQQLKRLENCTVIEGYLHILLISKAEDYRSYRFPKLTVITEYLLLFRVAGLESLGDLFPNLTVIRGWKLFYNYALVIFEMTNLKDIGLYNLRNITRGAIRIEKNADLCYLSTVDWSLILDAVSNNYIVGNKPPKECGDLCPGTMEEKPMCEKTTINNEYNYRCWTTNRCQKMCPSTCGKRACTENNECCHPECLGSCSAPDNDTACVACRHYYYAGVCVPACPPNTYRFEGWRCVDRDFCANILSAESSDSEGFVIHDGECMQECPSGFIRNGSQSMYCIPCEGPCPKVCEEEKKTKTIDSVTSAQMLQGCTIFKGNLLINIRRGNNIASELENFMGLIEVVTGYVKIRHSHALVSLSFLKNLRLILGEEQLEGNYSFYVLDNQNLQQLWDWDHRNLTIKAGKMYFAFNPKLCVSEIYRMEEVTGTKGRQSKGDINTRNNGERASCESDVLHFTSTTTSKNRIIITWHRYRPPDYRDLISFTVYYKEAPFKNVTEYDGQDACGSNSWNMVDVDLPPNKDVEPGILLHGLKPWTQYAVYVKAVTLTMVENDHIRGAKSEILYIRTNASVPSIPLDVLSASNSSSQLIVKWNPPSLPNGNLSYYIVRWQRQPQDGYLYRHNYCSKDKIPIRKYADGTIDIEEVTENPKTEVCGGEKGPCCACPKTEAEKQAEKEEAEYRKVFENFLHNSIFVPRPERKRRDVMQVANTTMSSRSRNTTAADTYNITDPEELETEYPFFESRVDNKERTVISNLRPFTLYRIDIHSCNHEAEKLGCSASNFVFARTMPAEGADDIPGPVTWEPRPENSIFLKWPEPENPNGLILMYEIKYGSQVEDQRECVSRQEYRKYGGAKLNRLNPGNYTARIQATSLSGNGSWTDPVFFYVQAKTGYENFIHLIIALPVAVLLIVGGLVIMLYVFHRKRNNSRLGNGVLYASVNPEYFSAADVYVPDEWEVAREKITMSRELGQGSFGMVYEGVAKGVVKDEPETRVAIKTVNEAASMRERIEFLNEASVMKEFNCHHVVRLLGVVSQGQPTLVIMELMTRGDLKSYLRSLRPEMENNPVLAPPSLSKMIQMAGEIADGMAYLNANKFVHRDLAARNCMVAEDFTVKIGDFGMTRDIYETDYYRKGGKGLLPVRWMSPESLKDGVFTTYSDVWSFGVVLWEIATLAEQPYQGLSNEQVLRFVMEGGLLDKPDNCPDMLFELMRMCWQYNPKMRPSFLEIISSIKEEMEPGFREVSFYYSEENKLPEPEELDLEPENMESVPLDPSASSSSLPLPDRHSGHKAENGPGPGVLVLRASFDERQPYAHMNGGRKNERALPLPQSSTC
Regarding B4, the “IGF-1 induced proliferation in A549 carcinoma cells, 3H-thymidine incorporation” value is 1000 nM.

In the case of B5, the “IGF-1 induced proliferation in A549 carcinoma cells, 3H-thymidine incorporation” value is 10 nM. On the same count and under the same terms, in the case of B6 it was 10 nM.
